{"source": "patent US20200399382A1", "about": "(ARGENX, published 2020)", "key": {"[1]": {"target": "T1, mouse IL-5 (mouse, UniProt P04401 21-133)", "T1 construct": "also called mIL-5; recombinant mouse IL-5 (R&D Systems)", "T1 sequence (looked up)": "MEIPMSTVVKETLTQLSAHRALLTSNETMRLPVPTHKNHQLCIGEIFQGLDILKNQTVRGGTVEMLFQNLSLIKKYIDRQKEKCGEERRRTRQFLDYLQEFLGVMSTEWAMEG", "experiment": "SPR sandwich: IL-4Rα-Fc coated, anti-IL-4Rα Ab as 1st injection, IL-5 as 2nd injection", "description": "(§1) The experiment was also performed in reverse order and confirmed the bispecific nature of the molecule as depicted in FIG. 13B."}, "[2]": {"target": "T2, mouse IL-4Rα (SPR target of Example 2) (mouse, UniProt P16382 26-233, limits assumed)", "T2 construct": "also called immobilized target IL-4Rα", "T2 sequence (looked up)": "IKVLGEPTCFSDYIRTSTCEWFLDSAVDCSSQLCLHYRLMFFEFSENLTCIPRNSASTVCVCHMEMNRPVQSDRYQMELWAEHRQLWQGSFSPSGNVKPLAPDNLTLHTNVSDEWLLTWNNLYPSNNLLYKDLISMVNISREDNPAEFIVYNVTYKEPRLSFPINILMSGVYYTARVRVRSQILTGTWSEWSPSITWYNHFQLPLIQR", "experiment": "SPR, mAb (0-20 µg/mL) over immobilised target; immobilized IL-4Rα target; IL-4Rα mAb in solution"}, "[3]": {"target": "T3, mouse IL-4Rα on cells (HT-2 cells, purified mouse B cells) (mouse, UniProt P16382 26-810)", "T3 sequence (looked up)": "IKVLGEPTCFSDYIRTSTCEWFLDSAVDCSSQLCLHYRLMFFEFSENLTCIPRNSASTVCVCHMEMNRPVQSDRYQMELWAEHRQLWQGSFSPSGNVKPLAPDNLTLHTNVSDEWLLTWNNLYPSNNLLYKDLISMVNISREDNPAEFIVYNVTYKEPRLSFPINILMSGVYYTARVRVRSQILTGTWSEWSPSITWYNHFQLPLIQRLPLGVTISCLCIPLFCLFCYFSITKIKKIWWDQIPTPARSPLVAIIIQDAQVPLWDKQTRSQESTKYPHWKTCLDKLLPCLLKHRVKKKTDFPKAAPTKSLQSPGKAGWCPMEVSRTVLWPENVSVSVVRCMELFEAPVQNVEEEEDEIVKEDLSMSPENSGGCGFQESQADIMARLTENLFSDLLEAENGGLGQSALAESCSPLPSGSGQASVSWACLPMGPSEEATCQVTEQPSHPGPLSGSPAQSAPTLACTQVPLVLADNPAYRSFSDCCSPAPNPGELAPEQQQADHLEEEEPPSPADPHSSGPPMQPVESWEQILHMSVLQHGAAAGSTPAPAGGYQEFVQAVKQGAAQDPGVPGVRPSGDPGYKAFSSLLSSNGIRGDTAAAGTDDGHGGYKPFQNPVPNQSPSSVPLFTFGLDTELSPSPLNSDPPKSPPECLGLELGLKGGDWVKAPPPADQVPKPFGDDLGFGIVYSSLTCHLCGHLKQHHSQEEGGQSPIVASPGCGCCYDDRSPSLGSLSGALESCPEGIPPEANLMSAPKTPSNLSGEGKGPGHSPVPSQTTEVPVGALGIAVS", "experiment": "cell-based or functional assay"}, "[4]": {"target": "T4, recombinant mouse IL-4Rα-Fc (mouse, UniProt P16382 26-233)", "T4 construct": "Bought reagent; also called coated IL-4Rα; injected IL-4Rα; not shown: Fc part", "T4 sequence (looked up)": "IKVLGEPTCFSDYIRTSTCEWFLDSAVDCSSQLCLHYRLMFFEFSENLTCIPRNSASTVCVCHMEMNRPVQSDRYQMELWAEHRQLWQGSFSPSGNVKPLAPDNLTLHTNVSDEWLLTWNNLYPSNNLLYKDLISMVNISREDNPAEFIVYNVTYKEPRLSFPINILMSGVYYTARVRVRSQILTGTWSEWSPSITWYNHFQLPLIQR", "experiment": "SPR sandwich: IL-5 coated, bispecific as 1st injection, IL-4Rα-Fc as 2nd injection", "description": "as §1"}, "[5]": {"target": "T1, mouse IL-5", "experiment": "SPR, IL-5 coated, antibody as 1st injection", "description": "as §1"}, "[6]": {"target": "T5, human IL-4Rα (SPR target) (human, UniProt P24394 26-232, limits assumed)", "T5 construct": "also called recombinant human IL-4Rα-Fc", "T5 sequence (looked up)": "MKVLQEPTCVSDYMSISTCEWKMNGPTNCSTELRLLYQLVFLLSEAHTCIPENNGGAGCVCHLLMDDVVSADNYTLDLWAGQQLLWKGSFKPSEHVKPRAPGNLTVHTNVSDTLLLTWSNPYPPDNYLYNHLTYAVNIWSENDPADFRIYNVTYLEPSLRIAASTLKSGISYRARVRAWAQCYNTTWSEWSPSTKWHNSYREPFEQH", "experiment": "SPR as described in Example 2"}, "[7]": {"target": "T6, human IL-4Rα on the cells of the hIL-4 proliferation assay (human, UniProt P24394 26-825)", "T6 sequence (looked up)": "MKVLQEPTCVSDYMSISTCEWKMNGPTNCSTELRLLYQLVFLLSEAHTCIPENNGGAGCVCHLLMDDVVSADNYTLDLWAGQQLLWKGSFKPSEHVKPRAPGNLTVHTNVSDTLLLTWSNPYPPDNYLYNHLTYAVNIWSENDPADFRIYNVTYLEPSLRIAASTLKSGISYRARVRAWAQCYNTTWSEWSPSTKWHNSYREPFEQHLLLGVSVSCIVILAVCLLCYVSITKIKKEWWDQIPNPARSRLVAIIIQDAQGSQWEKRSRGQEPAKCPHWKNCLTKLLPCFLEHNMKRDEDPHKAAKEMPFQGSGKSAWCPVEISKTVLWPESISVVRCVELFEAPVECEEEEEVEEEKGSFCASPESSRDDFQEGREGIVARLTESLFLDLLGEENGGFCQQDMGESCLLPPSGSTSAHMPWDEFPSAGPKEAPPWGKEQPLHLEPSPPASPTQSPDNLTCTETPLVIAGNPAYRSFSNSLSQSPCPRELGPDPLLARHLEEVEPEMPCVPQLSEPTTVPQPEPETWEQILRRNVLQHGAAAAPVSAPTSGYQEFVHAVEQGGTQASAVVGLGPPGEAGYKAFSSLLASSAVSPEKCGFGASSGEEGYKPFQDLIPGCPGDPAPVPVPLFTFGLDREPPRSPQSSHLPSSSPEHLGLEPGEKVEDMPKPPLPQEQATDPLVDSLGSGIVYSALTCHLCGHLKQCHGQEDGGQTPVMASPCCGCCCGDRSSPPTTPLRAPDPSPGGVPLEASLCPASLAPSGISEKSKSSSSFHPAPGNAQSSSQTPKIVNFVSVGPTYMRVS", "experiment": "cell-based or functional assay"}, "[8]": {"target": "T1, mouse IL-5", "experiment": "cell-based or functional assay"}, "[9]": {"target": "T1, mouse IL-5", "experiment": "SPR, mAb (0-20 µg/mL) over immobilised target; immobilized IL-5 target; IL-5 mAb in solution"}, "[10]": {"target": "T4, recombinant mouse IL-4Rα-Fc", "experiment": "SPR, IL-4Rα-Fc coated, antibody as 1st injection", "description": "as §1"}, "[11]": {"target": "T1, mouse IL-5", "experiment": "cell-based or functional assay", "remark": "listed apart in the source"}}, "data": [{"binder": "m4RMP36B7 IL-4Rα monospecific antibody (mouse IgG2a) (antibody, V domains shown, also called IL-4Rα mAb; IL-4Rα monospecific Ab) VH: EVQLVESGGGLVQPGGSLRVSCAASGFTFSSYYMAWVRQAPGKGLEWVSHIHAGGSLTQYADSVKGRFTISRDNAKSTLYLQMNSLKPEDTALYYCVRIYGDATSYDYWGQGTQVSVSS VL: HSAVTQPPSVSGSPGKTVTISCAGTSSDIGGYNYVSWYQQFPGTAPKLLIYEVNKRASGIPDRFSGSKSGNTASLSISGLQSEDEADYYCASYRSNNNIVFGGGTHLTVL", "values": [{"measurement": "binding result", "setting": "[1]", "value": "no binding"}, {"measurement": "Kd", "setting": "[2]", "value": 0.08, "unit": "nM"}, {"measurement": "EC50, inhibition of mouse IL-4-induced proliferation of HT-2 cells", "setting": "[3]", "value": 0.2, "unit": "nM"}]}, {"binder": "IL-4Rα/IL-5 bispecific antibody (knob-into-hole, mouse IgG2a; 4RMP36B7 arm and 5MP95G7 arm) (bispecific antibody, V domains shown, Murine Fc: the 4RMP36B7 heavy chain carries T366S, L368A and Y407V in CH3, the 5MP95G7 heavy chain carries T366W; also called IL-4Rα/IL-5 bispecific Ab; bispecific Ab) VH 1: EVQLVESGGGLVQPGGSLRVSCAASGFTFSSYYMAWVRQAPGKGLEWVSHIHAGGSLTQYADSVKGRFTISRDNAKSTLYLQMNSLKPEDTALYYCVRIYGDATSYDYWGQGTQVSVSS VL 1: HSAVTQPPSVSGSPGKTVTISCAGTSSDIGGYNYVSWYQQFPGTAPKLLIYEVNKRASGIPDRFSGSKSGNTASLSISGLQSEDEADYYCASYRSNNNIVFGGGTHLTVL VH 2: ELQVVESGGGLVQPGGSLRLSCAASGFTFSSYGMSWVRQAPGKGLEWVSTISRGGDSTSYADSVKGRFTISKDNAKNTLYLQMNSLEPEDTAVYYCANLGRLGFGRGQGTQVTVSS VL 2: SYELTQPPSVSGSPGKTLTISCAGTSSDIGDWNYVSWFQQLPGTAPKLLISEVNKRASGIPDRFSGSKSGNTASLSISGLQSEDEADYYCTSYRSGNNWVFGGGTHLTVL", "values": [{"measurement": "binding result", "setting": "[4]", "value": "binds"}, {"measurement": "binding result", "setting": "[5]", "value": "binds"}]}, {"binder": "h4R3D6 human IL-4Rα mAb (antibody, V domains shown, also called 4RMP3D6) VH: QVQLQESGGGLVQPGGSLRLSCAASGFTFSSYSLTWVRQAPGKGLEWVSTIKARGGTTLYADSVKDRFTISRDNAKNTLYLLMNSLKPEDTAVYYCAKPLYNNFAGDFGSWGQGTTVTVSS VL: DIQMTQSPSSLSASLGDRVTITCQASQSISSYLAWYQQKPGQAPKLLIYGGSRLQTGVPSRFSGSGSGTSFTLTISGLETEDLATYYCLQDYSWPLTFGQGTKVELK", "values": [{"measurement": "Kd", "setting": "[6]", "value": 0.0551, "unit": "nM"}, {"measurement": "IC50 (nM), proliferation assay with hIL-4 (1.5 ng/mL)", "setting": "[7]", "value": 0.6, "unit": "nM"}]}, {"binder": "95G7hIgG1 (IL-5 antibody 5MP95G7 as human IgG1) (antibody, V domains shown) VH: ELQVVESGGGLVQPGGSLRLSCAASGFTFSSYGMSWVRQAPGKGLEWVSTISRGGDSTSYADSVKGRFTISKDNAKNTLYLQMNSLEPEDTAVYYCANLGRLGFGRGQGTQVTVSS VL: SYELTQPPSVSGSPGKTLTISCAGTSSDIGDWNYVSWFQQLPGTAPKLLISEVNKRASGIPDRFSGSKSGNTASLSISGLQSEDEADYYCTSYRSGNNWVFGGGTHLTVL", "values": [{"measurement": "EC50 (nM), inhibition of mIL-5-induced (0.25 ng/mL) proliferation of TF-1 cells", "setting": "[8]", "value": 1.86, "unit": "nM"}]}, {"binder": "m5MP95G7 IL-5 monospecific antibody (mouse IgG2a) (antibody, V domains shown, also called IL-5 mAb; IL-5 monospecific Ab) VH: ELQVVESGGGLVQPGGSLRLSCAASGFTFSSYGMSWVRQAPGKGLEWVSTISRGGDSTSYADSVKGRFTISKDNAKNTLYLQMNSLEPEDTAVYYCANLGRLGFGRGQGTQVTVSS VL: SYELTQPPSVSGSPGKTLTISCAGTSSDIGDWNYVSWFQQLPGTAPKLLISEVNKRASGIPDRFSGSKSGNTASLSISGLQSEDEADYYCTSYRSGNNWVFGGGTHLTVL", "values": [{"measurement": "Kd", "setting": "[9]", "value": 0.002, "unit": "nM"}, {"measurement": "EC50 (nM), inhibition of mIL-5-induced (0.25 ng/mL) proliferation of TF-1 cells", "setting": "[8]", "value": 1.75, "unit": "nM"}, {"measurement": "binding result", "setting": "[10]", "value": "no binding"}, {"measurement": "EC50, inhibition of mouse IL-5-induced proliferation of TF-1 cells", "setting": "[11]", "value": 0.6, "unit": "nM"}]}]}
